Like-named read-outs stand apart in the source and are kept apart here.
B1: DcR3-hFc (Fc fusion)
chain: VAETPTYPWRDAETGERLVCAQCPPGTFVQRPCRRDSPTTCGPCPPRHYTQFWNYLERCRYCNVLCGEREEEARACHATHNRACRCRTGFFAHAGFCLEHASCPPGAGVIAPGTPSQNTQCQPCPPGTFSASSSSSEQCQPHRNCTALGLALNVPGSSSHDTLCTSCTGFPLSTRVPGAEECERAVIDFVAFQDISIKRLQRLLQALEAPEGWGPTPRAGRAALQLKLRRRLTELLGAQDGALLVRLLQALRVARMPGLERSVRERFLPVH
notes: also called Acro Bio TNB-H5255; not shown: The hIgG1 Fc at the C-terminus, and any linker, of the vendor reagent Acro Bio TNB-H5255
B2: recombinant human LIGHT (Acro Bio LIT-H5242) (ligand)
chain: LIQERRSHEVNPAAHLTGANSSLTGSGGPLLWETQLGLAFLRGLSYHDGALVVTKAGYYYIYSKVQLGGVGCPLGLASTITHGLYKRTPRYPEELELLVSQQSPCGRATSSSRVWWDSSFLGGVVHLEAGEKVVVRVLDERLVRLRDGTRSYFGAFMV
notes: Bought protein; also called hLIGHT; Tumor Necrosis Factor Ligand Superfamily Member 14
B3: recombinant human TL1A (Acro Bio TLA-H5244), plate bound (ligand)
chain: LKGQEFAPSHQQVYAPLRADGDKPRAHLTVVRQTPTQHFKNQFPALHWEHELGLAFTKNRMNYTNKFLLIPESGDYFIYSQVTFRGMTSECSEIRQAGRPNKPDSITVVITKVTDSYPEPTQLLMGTKSVCEVGSNWFQPIYLGAMFSLQEGDKLMVNVSDISLVDYTKEDKTFFGAFLL
notes: Bought protein; also called hTL1A; Tumor Necrosis Factor Ligand Superfamily Member 15
B4: recombinant human FASL (Acro Bio HAL-H5241) (ligand)
chain: PSPPPEKKELRKVAHLTGKSNSRSMPLEWEDTYGIVLLSGVKYKKGGLVINETGLYFVYSKVYFRGQSCNNLPLSHKVYMRNSKYPQDLVMMEGKMMSYCTTGQMWARSSYLGAVFNLTSADHLYVNVSELSLVNFEESQTFFGLYKL
notes: Bought protein; also called hFASL; FAS Ligand

Legend:
[1] = target: B3; assay: ELISA: plate coated with recombinant human TL1A (2 µg/mL), Fc-tagged protein titrated 3-fold from 10 nM, anti-human Fc HRP, OD 450 nm background subtracted
Description: (§1) Briefly, Maxisorp 384 well plates (Thermo Nunc Cat #P6366-1CS) were coated with 25 μL of 2 μg/mL of recombinant human TNFSF ligands: TNFα (Acro Bio TNA-H5228), TL1A (Acro Bio TLA-H5244), FASL (Acro Bio HAL-H5241), or LIGHT (Acro Bio LIT-H5242) in PBS or were coated with PBS alone overnight at 4° C. The plates were washed 3 times with 0.1% PBS-T and incubated with SuperBlock blocking buffer (Thermo Fisher 37515) for 1 hour at room temperature with shaking at 400 RPM. […] Plates were incubated for 1 hour at room temperature with shaking at 400 RPM. ELISA plates were washed 3 times with 0.1% PBS-T and incubated with an anti-human Fc HRP conjugated secondary antibody (ThermoFisher Scientific Cat #H10307) 1:2000 in 0.1% PBS-T for 1 hour at room temperature with shaking at 400 RPM. The plates were washed 3 times with 0.1% PBS-T and incubated with 20 μL of TMB (ThermoFisher Scientific Cat #34028) per well. The reaction was stopped at 5 minutes by adding 20 μL of Stop Solution (BioFX LSTP-1000-01). […] Blank subtracted ODs were calculated by subtracting the ODs from the blank plate from the readings from each of the ligand plates and data was plotted using PRISM (version 10.0.2).

[2] = target: B3; assay: as above; remark: listed apart in the source
Description: as §1

[3] = target: B3; assay: as above; remark: listed apart in the source
Description: as §1

[4] = target: B3; assay: as above; remark: listed apart in the source
Description: as §1

[5] = target: B2; assay: ELISA: plate coated with recombinant human LIGHT (2 µg/mL), Fc-tagged protein titrated 3-fold from 10 nM, anti-human Fc HRP, OD 450 nm background subtracted
Description: as §1

[6] = target: B4; assay: ELISA: plate coated with recombinant human FASL (2 µg/mL), Fc-tagged protein titrated 3-fold from 10 nM, anti-human Fc HRP, OD 450 nm background subtracted
Description: as §1

[7] = target: B4; assay: as above; remark: listed apart in the source
Description: as §1

[8] = target: B4; assay: as above; remark: listed apart in the source
Description: as §1

[9] = target: B4; assay: as above; remark: listed apart in the source
Description: as §1

[10] = target: B3; assay: ELISA: plate coated with recombinant human TL1A (2 µg/mL), Fc-tagged protein titrated 3-fold from 10 nM, anti-human Fc HRP, OD 450 nm background subtracted; remark: listed apart in the source
Description: as §1

[11] = target: B4; assay: ELISA: plate coated with recombinant human FASL (2 µg/mL), Fc-tagged protein titrated 3-fold from 10 nM, anti-human Fc HRP, OD 450 nm background subtracted; remark: listed apart in the source
Description: as §1

[12] = target: B2; assay: ELISA: plate coated with recombinant human LIGHT (2 µg/mL), Fc-tagged protein titrated 3-fold from 10 nM, anti-human Fc HRP, OD 450 nm background subtracted; remark: listed apart in the source
Description: as §1

[13] = target: B2; assay: as above; remark: listed apart in the source
Description: as §1

[14] = target: B2; assay: as above; remark: listed apart in the source
Description: as §1

[15] = target: B2; assay: as above; remark: listed apart in the source
Description: as §1

[16] = target: T1, TNFR2 ECD-Fc (human, UniProt P20333); assay: as above
T1 construct: Fc region, C-terminal fusion partner; also called TNFR2 ECD-hFc; Ichor Bio ICH4022
T1 sequence (TNFR2 ECD-Fc fusion chain): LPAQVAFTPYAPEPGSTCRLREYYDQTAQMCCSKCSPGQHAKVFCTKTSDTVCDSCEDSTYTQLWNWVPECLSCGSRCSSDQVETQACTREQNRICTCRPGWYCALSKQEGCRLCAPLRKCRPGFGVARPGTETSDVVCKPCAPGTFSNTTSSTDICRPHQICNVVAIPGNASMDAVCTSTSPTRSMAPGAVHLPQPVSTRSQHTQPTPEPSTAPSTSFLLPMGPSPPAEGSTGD
Description: as §1

[17] = target: T1, TNFR2 ECD-Fc; assay: ELISA: plate coated with recombinant human TL1A (2 µg/mL), Fc-tagged protein titrated 3-fold from 10 nM, anti-human Fc HRP, OD 450 nm background subtracted
Description: as §1

[18] = target: T1, TNFR2 ECD-Fc; assay: ELISA: plate coated with recombinant human FASL (2 µg/mL), Fc-tagged protein titrated 3-fold from 10 nM, anti-human Fc HRP, OD 450 nm background subtracted
Description: as §1

Binder: B1
- EC50 (read off the curve) [1]: ~0.1 nM
- EC50 (read off the curve) [2]: ~0.1 nM
- EC50 (read off the curve) [3]: ~0.1 nM
- EC50 (read off the curve) [4]: ~0.1 nM
- EC50 (read off the curve) [5]: ~0.2 nM
- EC50 (read off the curve) [6]: ~0.1 nM
- EC50 (read off the curve) [7]: ~0.1 nM
- EC50 (read off the curve) [8]: ~0.1 nM
- EC50 (read off the curve) [9]: ~0.1 nM
- EC50 (read off the curve) [10]: ~0.1 nM
- EC50 (read off the curve) [11]: ~0.1 nM
- EC50 (read off the curve) [12]: ~0.2 nM
- EC50 (read off the curve) [13]: ~0.2 nM
- EC50 (read off the curve) [14]: ~0.2 nM
- EC50 (read off the curve) [15]: ~0.2 nM

Binder: B2
- binding result [16]: no binding (tested: 10 nM (LOG[Dose] 1))

Binder: B3
- binding result [17]: no binding (tested: 10 nM (LOG[Dose] 1))

Binder: B4
- binding result [18]: no binding (tested: 10 nM (LOG[Dose] 1))

Source: patent US20250375499A1 (FLAGSHIP PIONEERING INNOVATIONS VII, published 2025)
